Assay: label from the status in PepcDB records

For “MNNKTKGIILITISALSFALMSTFVKLSGDLPSIEKSFFRNLVSCFVAFYLVKKDNALLFGHKENRLALIGRSALGTLGIWANYYAIDRLILSDATILNKLSPFFVIIFSYLFLKEKLKPIHIICLLAAFSGVLFIVRPSGNLASNFIPAIIGLCSAAFAGGAYTFVRYLGGKEKGATIVFFFSFFSIVTTFPIMLFQFETFSLEQFVFLILAGVAASCAQFALTAAYKYAPARDISIYDYTQVIFTALIGFVLFGDIPDKISLIGYVLILLASFSIFLYNKKEASK”, the protein production was “not failed”.
With “MSMLGIKWKLHGNGKSIRPGHVVAPDERLAWPLTIGIGMQHVVAMFGATFLVPIITGMPPATTLLFSGIGTLLFLVITKGRVPSYLGSSFAFIAPIMASQQQYGVSGALGGVVLAGVVLALIGAVVQKFGAEWINRLMPPIVTGAIVALIGLNLAPAAKANFDAAPVTALITLVTIILVSVLFRGILGRLSILVGVVVGYLVAMMRGEVSYEKMDAAAWVGLPLFQTPEFHIGVVGLFVPVVLVLVAENVGHVKSVAAMTGQNLDGVSGRALMADGAATVLAGFGGGSGTTTYAENIGVMAATKVYSTAAYWVAGVFAILLSFSPKFGELIATVPPGVLGGAATMLYGMIGVLGVKIWVQNKVNFSNPINLTTAAVALIIGIADYAWTIGELKFTGIALGSAAALVIYHGMKGLAHWRGTVAEPETETAGLPPAVKSAMNAAAKRGGKKGK” the protein production was “failed”.
For “MSLDSALRSRIETLLHSNRVVLFMKGRPGMPQCGFSAKAAGILQALGVEYAHVNVLDDQEIREGIKRYGDWPTIPQLYIDGELIGGSDIVSQMYENGELSTLLGVAAPDLTPPSITITPTAVEMLKGTLANAPGSTLALSIDSRFQPTFELAPINTQAIAAEYNGLRVQFDLASARRAEGITIDWVDDIRGQGLVIDNPNAPQPIQELSPGDAAAQVDAGVLTLVDVRPADERAVASVAVPFRTMDGGERAVLEQLPKGTPLAFLCHHGGRSLQAAEHFRSLGFTSIYNIGGGIDAWSTQVDPGVPKY”, the protein production was “failed”.
In the case of “MANADLDKQPDSVSSVLKVFGILQALGEEREIGITELSQRVMMSKSTVYRFLQTMKTLGYVAQEGESEKYSLTLKLFELGARALQNVDLIRSADIQMRELSRLTKETIHLGALDEDSIVYIHKIDSMYNLRMYSRIGRRNPLYSTAIGKVLLAWRDRDEVKQILEGVEYKRSTERTITSTEALLPVLDQVREQGYGEDNEEQEEGLRCIAVPVFDRFGVVIAGLSISFPTLRFSEERLQEYVAMLHTAARKISAQMGYHDYPF”, the protein production is reported as “not failed”.
With “MPYFLIHNKNDNVGVAIADIKTGQEVEGIYIEDMTQGPKIKAISDIPLGHKIALKDIRQSDIVIKYGRPIGSAIKDIKVGEHVHVHNIRSNRWGKWKNQ” the protein production was “not failed”.
With “MLTVRNHPGVMSHICGLFARRAFNVDGILCMPLAGGEESRIWLQVLDDQRLQQMISQLEKLEDVLQVCRFDSEMPIFDQVEDLVAHQR” the protein production was “not failed”.
With “MRNLKDRVLNSLKGNKKDIKISVVVPTYNTELEGLKNLMASIDKQTMNPDEYELVFVDDGSTTDTYERLQEFAETRPNMTVKQIENSGWGSRPRNIATKMAKGEYILYLDHDDTVFPETFERVYNFGKENNLDVVSGKEVRTNGWSWGWKQFSENNPHAEEMGIECLLPMTPHKFYKREFLLENDITFDDGARVLWEDVYFNSKAFIHGAKVGILADYPTYYWIATGANNSSSFGRDPHEKWNQINKLFNFFKDNIKEQRDLDFMLTHWYRSRVLGILGQWLLKNNNERIDIEFNYAKKLAEELIPAYISENLDKNNQVKDYLLRQGDLDSLKKLAQIDAGITALSYVEDAYFKEDKLFFKTSTKMTYEDKEDFFIEKTADRMERILPEEIKSKLPKEFFDYSDDLAEFTYEPSIKGRNSRATWKIDGSTSNVEVVNKKANLYKIEGEMSFSVQINDYILDAADKKQPWDIATRFTGLGYTSHRALTIGKILIKTALINNKTMIVYKNASGLISLDVGSSVRSIVEDSGVKREQILIDKTSGKVTIPLNEIHVFGESLIEGNAELKPVGISDADPINVKAKLIGEANKARVEVLLGDEKLSGEYHLVTNIQGKKDKQQIKITL” the protein production was “failed”.
In the case of “MLLILIIIAFVVLFVFFAKYQKKQAQAAALAAGDPSALLNHGLTLINQNQVETGLDFIHQAVDKGFAIAAIALAELYSGRFPQVPADAKASNDWYKKAAELDPQYLAMLTLPNLLSSQAQTPDELIAQVEQLKPNAEAGQAEFQYELAYLYLRQPFLDPDASQAIYWFEKAAAQNKQEANYHLGTLYKDDERITSDYNKARKYFEKAVAAGDELAKDNLAHMLATGQGGPKDLVRAEHLLSEYAAEDDFRQYYLGKRFLYGEDFAVDYDKARHWLEKSSAAGNVFAKLALAHLKLLAQKNDQDYLQARTEFEALAPQWQEEALFGLGKIYEEGLGVSRQPIKALMYYQLAAMSHNTDYLTAYDKLSKRLGTLEIREAQSLCNNFLHQHPIPNEQQAYYYLNQAEIYRKGDHPSREGLQTAETWYRKSADLGNQNAMQALVEIYRHELMDKPVQAFIWSSILLRNFGKYGMNSDQLLYQQQAQSRLTESELLYAQSEIERIEALLTPYLETHQSV”, the protein production is reported as “failed”.
In the case of “MDKVILITGASGGIGEGIARELGRRCENIVGCTPPGPYRGHCHGDSTQEVPPWRRCWTPTVTPWQPLQAAVDTWGRIDVLVNNAGVMPLSACRSGGRVGAHDRREHQGRALGSGPYCQSWRHSVAGRSSISARSALSVVPTAAVYCATKFAVRAISDTAPGEYQYPRHLRQSRRRRKRTCEPSPTRRPWRRWTPIAPSRFSLDIARAVRQVIEAPQSVDTTEITITDRIGQL”, the protein production is reported as “not failed”.
With “MKSDYELSLRDYIAIIKDRALVLGVSAAVILAATVAVALMVPPIYQSTGTILVESQQISPELVSTNNTSFADERIEVIRQRVMTRDNLLRIIGKYDLFADKRFSESDKIDQMRNAIVVETLTTYVRGRGEATVAFNVSFEHKQPQVAKEVADELVTLFLNENLKQRTERANETTEFLTQEANKLGAELASLENQLADFKQAHANALPEHQTLRMNMLSRAELEFREVDRDYKAAQEELRYLELELSAANAGLATKVAEGTRPTRADLPEDLPSLKAEYAQLLTRYKDAHPDVVAVKRKIQALEASGGRTAAVSTVSLDAARVRAKMSAAQVRIASLAEQKRELTRKMEGYEAEILEAPQVERGLVTLMRDHDNARKKYEEIRAKEMGAKITESLEQENKAERFVLLEPPLLPEKPIKPNRKKIAALGLVLAPAGGGALVMLLEMLNQRVRGVGALESLLGKRVLVALPYIDTRADVARRKRWRNRLILAALALAAIMIGLVHVFYMPLDVLL” the protein production was “failed”.
With “MLQTIKRADSAVSIIGAGIAGAWQALLFAQAGHAVTLHERGDAAMTDSTSHWAGGMLAPWCEAEVAEPIISRLGQRSLDIWRRELPDTPFNGSLVVAHPRERNDFERFARMTEEHRRLDAASLAELEPSLEGRFRDALFFPTEGHVEPRRVLPKLHERIRAAGGTIKFSSDVSAADLDGIVIDCRGLSARDEQPDLRGVKGEMILIETSEVQLARPVRLIHPRWPLYVIPREDNLFMLGATSIEAEDTGVSVRSALELLGAAYTVHPAFGEARIVEFGSGLRPAFPDNLPRIGIRGGRITVNGLYRHGFLIAPALAELTLQYVQRGQIDNEVMQCG” the protein production was “failed”.
For “MSAQSSVQPELAVRQWRTPLELGFLGVVWGCSFLFMRVAAPKFGTVVLVEIRLALGALVLLPFLWLARERFPLHRWPMLAAIGVLNSALPFLLFAWGAQHAPAAVGAICNAMTVLFTALIAFLFFGERIGTRRALALLVGFIGVLVLATGKSAGLSVGPAALAGATASLLYGIGYNLVKRHMGDLPPAASAASTLGCSALLLAPLAWWQWPTTPVPAVAWACATALGVVCTGLAFLMYYRLIQRIGPARASTVTYLVPVFGALLAWSLLGEPLTWTMLVAAVLILGSVAFSQRAR”, the protein production was “failed”.
With “MTALFFENFAPGHFGRYGPRRVTREEIIAFASEYDPQPMHLDDHAANASMLKGMSGSGWHLSSLMMRMMYDGFIKDTASLGSPGVDEMRWMSPLRPGDDLLLDVEVIEARVSKSRPETGIVTFKCYVRNGHGQMLSEMVSPIIVKRRDAD” the protein production was “failed”.

— a protein production outcome set (Wang et al. 2014)
